For 1 molecule, IC50 results are on record in US12280121B2, “Immunoconjugates and methods” (Immunome, Inc., priority 2021, dated 2025).

Like-named read-outs stand apart in the source and are kept apart here.

The experiment concerns Jeko-1. The experiment is described as follows: CTG assay of ROR-1 ADCs and toxins, JeKo-1. The class given is cell-based. As to the method: FIG. 33 illustrates a CTG assay wherein ROR+ (JeKo-1) cells were incubated with the ADCs generated as described in FIG. 32 in serial three-fold dilutions and cell viability was assessed after 72 hours.
The CTG assay is a method of determining the number of viable cells in culture based on quantitation of the ATP present, an indicator of metabolically active cells. The cell assay requires the addition of a single reagent, Cell Titer Glo, in which cells are lysed and generation of a luminescent signal is produced. The luminescent signal is proportional to the amount of ATP present. The amount of ATP is directly proportional to the number of cells present in culture. For our assay, cells were ensured to be in log-phase for either Jeko-1 or MDA-MB-468. Cells were transferred to 96 wells and treated with compounds in three-fold serial dilution starting from 1 μM to 0.0000508 μM (10 points dilution), for 72 h. Cell viability was analyzed with CellTiter-Glo® Luminescent Cell Viability Assay (Promega) following manufactures' instruction. Percentage of viable cells in each compound concentration was determined by normalizing with the luminescence of vehicle control and plotted into percentage of viability versus dose response curve by nonlinear fit in GraphPad Prism software.
Novel ROR-1 antibody-drug conjugates (ADCs) were evaluated by CTG Assay in a similar manner as was described in Example 24 for screening of payloads. […] Briefly ROR+(JeKo-1/MDA-MB-468) or ROR− (Ramos) cells were transferred to 96 wells and treated with the ADCs in three-fold serial dilution starting from […] (10 points dilution), for 72 h. Cell viability was analyzed with CellTiter-Glo® Luminescent Cell Viability Assay (Promega) following the manufactures' instructions (FIG. 33). The percentage of viable cells at each ADC concentration was determined by normalizing with the luminescence of vehicle control and plotted into percentage of viability versus dose response curve by nonlinear fit in GraphPad Prism software.

B1: VLS-101 (conjugate, chains of the INN, looked up)
VH: QVQLQESGPGLVKPSQTLSLTCTVSGYAFTAYNIHWVRQAPGQGLEWMGSFDPYDGGSSYNQKFKDRLTISKDTSKNQVVLTMTNMDPVDTATYYCARGWYYFDYWGHGTLVTVSS
VL: DIVMTQTPLSLPVTPGEPASISCRASKSISKYLAWYQQKPGQAPRLLIYSGSTLQSGIPPRFSGSGYGTDFTLTINNIESEDAAYYFCQQHDESPYTFGEGTKVEIK
modifications: vedotin (MMAE) payload
B1: the IC50 (usually the concentration needed to halve the response being measured) by setting is: (Jeko-1, average of run 1 and run 2, read-out: Avg. IC50) 60.1 nM; (Jeko-1 P3, run 1, 72 h, read-out: Jeko-1 P3 (RUN1) IC50) 63.4 nM; (Jeko-1 P4, run 2, 72 h, read-out: Jeko-1 P4 (RUN2) IC50) 56.8 nM.
